Laboratory results: article PMC7943553 (2021)

Assays:
[1] = target: 326327; experiment: BLI
[2] = target: 279280; experiment: BLI
[3] = target: 254255; experiment: BLI
[4] = target: 250233; experiment: BLI
[5] = target: 262231; experiment: BLI
[6] = target: 239229; experiment: BLI
[7] = target: 252248; experiment: BLI
[8] = target: 335338; experiment: BLI
[9] = target: 267268; experiment: BLI
[10] = target: 277278; experiment: BLI
[11] = target: 281282; experiment: BLI
[12] = target: 260261; experiment: BLI
[13] = target: 346343; experiment: BLI
[14] = target: 256257; experiment: BLI
[15] = target: 340341; experiment: BLI
[16] = target: 326327; experiment: BLI; representative sensorgram
[17] = target: 279280; experiment: BLI; representative sensorgram
[18] = target: 254255; experiment: BLI; representative sensorgram
[19] = target: 250233; experiment: BLI; representative sensorgram
[20] = target: 262231; experiment: BLI; representative sensorgram
[21] = target: 239229; experiment: BLI; representative sensorgram
[22] = target: 252248; experiment: BLI; representative sensorgram
[23] = target: 335338; experiment: BLI; representative sensorgram
[24] = target: 267268; experiment: BLI; representative sensorgram
[25] = target: 277278; experiment: BLI; representative sensorgram
[26] = target: 260261; experiment: BLI; representative sensorgram
[27] = target: 346343; experiment: BLI; representative sensorgram
[28] = target: 256257; experiment: BLI; representative sensorgram
[29] = target: 340341; experiment: BLI; representative sensorgram

B1: P. vivax Reticulocyte Binding Protein 2b, residues 161–1454 (domain or fragment)
chain: PSPESTQITNTTDNIDYFDISDESNYYLISQLRPHFSNIYFFDEFKRYASYHTEIKRYEDIHKTKVNSLLNEASRAIGICNRAKNTVKGLINILENPQKFKTQRESYDVKLRQYEEKKEAFRGCLLNKNRKNLDQIKKINNEIRDLLEKLKCSQDCQTNVYFDMIKIYLVDFKKMPYENYDTFIKQYKNSYLSGVDMIRKIEKQIDNPVTINAIKFTQKEMGYIIDRFEYHLQKVKHSIDQVTALSDGVKPKQVTKNRLKEYYFNIGNYYSIFKFGKDSLNMLNKALIHKEKIVHNLLGELFGHLEERISKLIDSEYFITESNNIISQSEETLKLAEDVYDKNTKLIEDLTLYPHLEINEFKKDYDNNVEDLRESIIYIQSYVSSIKSAYRYNVLEKDSVESKQKNIPANSNAQKKVDELLSIIDSISYSNFSVAENFQKMKDYYKEIEKLKIKILQLIEAIKKYQQHVEELINKEKAVAILKEDINKIIEYIKGIIEKLKQLISANKDFDKIFQQVEQLINEALFNKDQFEHNKNDLHTKMKEIMHTFHERDLQQFLDNMSKFLKDQEASYQNADSKEKLDQLLTTVKAKQDELKEMKCDDIPDIIDNLKKESQNVLNLKDEVINKQFENMRTEMSSSLDQMTKEYNALKSSIEEYEAEKKGIENHKQNIIKRKNTFIVAEHENDEDVPEGKNTYNEFISNKDTILQKESAISNQMNTLEEKKRNRKTTLQTYGDAIQKLETYTEKKDEETKVLLDKFNTEVENFKLDEDEKSFNDAKSIVSNTINEVENENKNIDSIKKVNIAMKRSRSNQQSVEQLIRNKDNLLKEKMEKHFQKINTDEIIGQSAKANLLNNLESEKAIINEQLNDAHLNDLKLQIEKTLSYCEKSRENIKGNNGTHPEELNASEIEWEATKGKIETLNSNYQALNKNMDDIINKQHDEMIVLIDRDIKEKGKDIELKVEQRIQALEKMKAKLSSFDTNEDVKKYQSDINKEELIKLKEMSTAVLNKIDQNKNQLINVKTKSSGYVAESNGIKNKQTEPSQEKDKQIVYNTNRGDIEKVYKNIRDMYNELDDVEKEETTSNEVDNIEMQYDRLLINLLVQKINEENTKAKGLMEEIKSYIENIESVQAKMSDETREGATEFEFNQYQQSSLANDKKITEIVQHAINKKGEAERSKKTNEVKSIKNDVNTYMQQVIDEYNAMQKALGDIKNVNDLLISTSGRRIAEEISKSTNEAENFEKQAKGELGKINDIIEKMENQMVQAKEHENKIHINLEDKQIDEEVQKIRQIHEE
modifications: DyLight 488 (NHS ester) in the FRET assay; biotin (BirA site) in the competition ELISA between human mAbs
Kd [1]: 0.642 nM
koff [1]: 0.000246 s⁻¹
Kd [2]: 0.727 nM
koff [2]: 0.000194 s⁻¹
Kd [3]: 0.0742 nM
koff [3]: 2.52e-05 s⁻¹
Kd [4]: 0.988 nM
koff [4]: 0.00035 s⁻¹
Kd [5]: 0.14 nM
koff [5]: 6.22e-05 s⁻¹
Kd [6]: 0.112 nM
koff [6]: 4.6e-05 s⁻¹
Kd [7]: 0.586 nM
koff [7]: 0.000193 s⁻¹
Kd [8]: 0.0782 nM
koff [8]: 3.08e-05 s⁻¹
Kd [9]: 0.213 nM
koff [9]: 5.71e-05 s⁻¹
Kd [10]: 0.0796 nM
koff [10]: 3.08e-05 s⁻¹
Kd [11]: 0.0273 nM
koff [11]: 6.03e-06 s⁻¹
Kd [12]: 0.0205 nM
koff [12]: 6.23e-06 s⁻¹
Kd [13]: < 0.01 nM
koff [13]: < 1e-06 s⁻¹
Kd [14]: < 0.01 nM
koff [14]: < 1e-06 s⁻¹
Kd [15]: 0.107 nM
koff [15]: 3.85e-05 s⁻¹
Kd [16]: 0.5 nM
Kd [17]: 0.8 nM
Kd [18]: 0.0157 nM
Kd [19]: 1 nM
Kd [20]: 0.1 nM
Kd [21]: 0.1 nM
Kd [22]: 0.3 nM
Kd [23]: 0.0505 nM
Kd [24]: 0.3 nM
Kd [25]: 0.0189 nM
Kd [26]: < 0.01 nM
Kd [27]: < 0.01 nM
Kd [28]: < 0.01 nM
Kd [29]: 0.0794 nM
